Data reported in patent US20140162945A1 (BEIJING HANMI PHARMACEUTICAL, published 2014).
Bridges are numbered along the chain shown (N, C = ends). Where no end group is shown, it is not given here. [ ]: non-standard residue; d: D form. The star is where a group is joined. Palmitoyl = CCCCCCCCCCCCCCCC(=O)*; Aib = CC(C)(N)C(=O)O

T1: human GIP receptor (human, UniProt P48546 22-466)
T1 sequence (looked up): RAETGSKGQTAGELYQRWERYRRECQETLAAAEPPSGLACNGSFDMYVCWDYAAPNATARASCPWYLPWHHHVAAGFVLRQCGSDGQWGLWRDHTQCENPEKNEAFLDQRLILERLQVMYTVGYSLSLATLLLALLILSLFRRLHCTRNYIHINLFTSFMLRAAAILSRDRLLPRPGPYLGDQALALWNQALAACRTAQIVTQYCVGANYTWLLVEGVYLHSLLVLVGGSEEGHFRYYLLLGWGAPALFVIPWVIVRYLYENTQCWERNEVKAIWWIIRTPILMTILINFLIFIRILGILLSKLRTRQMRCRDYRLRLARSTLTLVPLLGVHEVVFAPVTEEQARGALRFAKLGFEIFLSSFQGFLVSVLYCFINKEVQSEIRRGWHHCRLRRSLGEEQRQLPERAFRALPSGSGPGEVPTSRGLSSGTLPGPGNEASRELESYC


Tests used:
human GLP-1 receptor = human GLP-1 receptor (human, UniProt P43220 24-463); experiment: cell-based or functional assay
human GIP receptor = target: T1, human GIP receptor; experiment: cell-based or functional assay

Chain of human GLP-1 receptor (P43220 24-463): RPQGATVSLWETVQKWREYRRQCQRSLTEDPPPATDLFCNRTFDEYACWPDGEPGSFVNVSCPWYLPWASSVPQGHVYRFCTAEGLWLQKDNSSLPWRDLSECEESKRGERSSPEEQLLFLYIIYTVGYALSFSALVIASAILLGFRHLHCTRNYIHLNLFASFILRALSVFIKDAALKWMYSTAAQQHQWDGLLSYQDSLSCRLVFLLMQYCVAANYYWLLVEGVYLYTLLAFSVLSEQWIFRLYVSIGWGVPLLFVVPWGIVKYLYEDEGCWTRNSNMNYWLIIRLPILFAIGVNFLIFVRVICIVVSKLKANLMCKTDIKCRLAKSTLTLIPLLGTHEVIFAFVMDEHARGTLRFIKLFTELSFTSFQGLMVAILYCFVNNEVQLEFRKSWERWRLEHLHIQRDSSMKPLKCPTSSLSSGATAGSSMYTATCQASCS

Binder	EC50, GLP-1 Receptor cAMP induction (human GLP-1 receptor) [nM]	EC50, GIP Receptor cAMP induction (human GIP receptor) [nM]	Relative Potency, GIP Receptor (human GIP receptor) [%]	Relative Potency, GLP-1 Receptor (human GLP-1 receptor) [%]
Y[Aib]EGTFTSDYSIYMEKEAVREFIAWLVK(Palmitoyl)G-NH2 [Analog 046]	6.52			
Y[Aib]EGTFTSDYSEYMEKEAVREFIAWLVKG-NH2 (N-terminus assumed; SMILES CC[C@H](C)[C@H](NC(=O)[C@H](Cc1ccccc1)NC(=O)[C@H](CCC(=O)O)NC(=O)[C@H](CCCNC(=N)N)NC(=O)[C@@H](NC(=O)[C@H](C)NC(=O)[C@H](CCC(=O)O)NC(=O)[C@H](CCCCN)NC(=O)[C@H](CCC(=O)O)NC(=O)[C@H](CCSC)NC(=O)[C@H](Cc1ccc(O)cc1)NC(=O)[C@H](CCC(=O)O)NC(=O)[C@H](CO)NC(=O)[C@H](Cc1ccc(O)cc1)NC(=O)[C@H](CC(=O)O)NC(=O)[C@H](CO)NC(=O)[C@@H](NC(=O)[C@H](Cc1ccccc1)NC(=O)[C@@H](NC(=O)CNC(=O)[C@H](CCC(=O)O)NC(=O)C(C)(C)NC(=O)[C@@H](N)Cc1ccc(O)cc1)[C@@H](C)O)[C@@H](C)O)C(C)C)C(=O)N[C@@H](C)C(=O)N[C@@H](Cc1c[nH]c2ccccc12)C(=O)N[C@@H](CC(C)C)C(=O)N[C@H](C(=O)N[C@@H](CCCCN)C(=O)NCC(N)=O)C(C)C) [Analog 052-1]	2.5	0.57	36.8	
Y[Aib]EGTFTSDYSEYMEKEAVREFIAWLVKG-NH2 (lactam 12-16; N-terminus assumed; SMILES CC[C@H](C)[C@H](NC(=O)[C@H](Cc1ccccc1)NC(=O)[C@H](CCC(=O)O)NC(=O)[C@H](CCCNC(=N)N)NC(=O)[C@@H](NC(=O)[C@H](C)NC(=O)[C@H](CCC(=O)O)NC(=O)[C@@H]1CCCCNC(=O)CC[C@H](NC(=O)[C@H](CO)NC(=O)[C@H](Cc2ccc(O)cc2)NC(=O)[C@H](CC(=O)O)NC(=O)[C@H](CO)NC(=O)[C@@H](NC(=O)[C@H](Cc2ccccc2)NC(=O)[C@@H](NC(=O)CNC(=O)[C@H](CCC(=O)O)NC(=O)C(C)(C)NC(=O)[C@@H](N)Cc2ccc(O)cc2)[C@@H](C)O)[C@@H](C)O)C(=O)N[C@@H](Cc2ccc(O)cc2)C(=O)N[C@@H](CCSC)C(=O)N[C@@H](CCC(=O)O)C(=O)N1)C(C)C)C(=O)N[C@@H](C)C(=O)N[C@@H](Cc1c[nH]c2ccccc12)C(=O)N[C@@H](CC(C)C)C(=O)N[C@H](C(=O)N[C@@H](CCCCN)C(=O)NCC(N)=O)C(C)C) [Analog 052-2]	0.824	0.064	147	133
Y[Aib]EGTFTSDYSIYMEKEAVEEFIAWLVKG-NH2 (N-terminus assumed; SMILES CC[C@H](C)[C@H](NC(=O)[C@H](Cc1ccccc1)NC(=O)[C@H](CCC(=O)O)NC(=O)[C@H](CCC(=O)O)NC(=O)[C@@H](NC(=O)[C@H](C)NC(=O)[C@H](CCC(=O)O)NC(=O)[C@H](CCCCN)NC(=O)[C@H](CCC(=O)O)NC(=O)[C@H](CCSC)NC(=O)[C@H](Cc1ccc(O)cc1)NC(=O)[C@@H](NC(=O)[C@H](CO)NC(=O)[C@H](Cc1ccc(O)cc1)NC(=O)[C@H](CC(=O)O)NC(=O)[C@H](CO)NC(=O)[C@@H](NC(=O)[C@H](Cc1ccccc1)NC(=O)[C@@H](NC(=O)CNC(=O)[C@H](CCC(=O)O)NC(=O)C(C)(C)NC(=O)[C@@H](N)Cc1ccc(O)cc1)[C@@H](C)O)[C@@H](C)O)[C@@H](C)CC)C(C)C)C(=O)N[C@@H](C)C(=O)N[C@@H](Cc1c[nH]c2ccccc12)C(=O)N[C@@H](CC(C)C)C(=O)N[C@H](C(=O)N[C@@H](CCCCN)C(=O)NCC(N)=O)C(C)C) [Analog 053-1]	12.7	0.5	34	
Y[Aib]EGTFTSDYSIYMEKEAVEEFIAWLVKG-NH2 (lactam 16-20; N-terminus assumed; SMILES CC[C@H](C)[C@H](NC(=O)[C@H](Cc1ccccc1)NC(=O)[C@H](CCC(=O)O)NC(=O)[C@@H]1CCC(=O)NCCCC[C@H](NC(=O)[C@H](CCC(=O)O)NC(=O)[C@H](CCSC)NC(=O)[C@H](Cc2ccc(O)cc2)NC(=O)[C@@H](NC(=O)[C@H](CO)NC(=O)[C@H](Cc2ccc(O)cc2)NC(=O)[C@H](CC(=O)O)NC(=O)[C@H](CO)NC(=O)[C@@H](NC(=O)[C@H](Cc2ccccc2)NC(=O)[C@@H](NC(=O)CNC(=O)[C@H](CCC(=O)O)NC(=O)C(C)(C)NC(=O)[C@@H](N)Cc2ccc(O)cc2)[C@@H](C)O)[C@@H](C)O)[C@@H](C)CC)C(=O)N[C@@H](CCC(=O)O)C(=O)N[C@@H](C)C(=O)N[C@@H](C(C)C)C(=O)N1)C(=O)N[C@@H](C)C(=O)N[C@@H](Cc1c[nH]c2ccccc12)C(=O)N[C@@H](CC(C)C)C(=O)N[C@H](C(=O)N[C@@H](CCCCN)C(=O)NCC(N)=O)C(C)C) [Analog 053-2]	2.96	0.48	35.4	37
Y[Aib]EGTFTSDYSIYMEKEAVKEFIAWLVKG-NH2 (N-terminus assumed; SMILES CC[C@H](C)[C@H](NC(=O)[C@H](Cc1ccccc1)NC(=O)[C@H](CCC(=O)O)NC(=O)[C@H](CCCCN)NC(=O)[C@@H](NC(=O)[C@H](C)NC(=O)[C@H](CCC(=O)O)NC(=O)[C@H](CCCCN)NC(=O)[C@H](CCC(=O)O)NC(=O)[C@H](CCSC)NC(=O)[C@H](Cc1ccc(O)cc1)NC(=O)[C@@H](NC(=O)[C@H](CO)NC(=O)[C@H](Cc1ccc(O)cc1)NC(=O)[C@H](CC(=O)O)NC(=O)[C@H](CO)NC(=O)[C@@H](NC(=O)[C@H](Cc1ccccc1)NC(=O)[C@@H](NC(=O)CNC(=O)[C@H](CCC(=O)O)NC(=O)C(C)(C)NC(=O)[C@@H](N)Cc1ccc(O)cc1)[C@@H](C)O)[C@@H](C)O)[C@@H](C)CC)C(C)C)C(=O)N[C@@H](C)C(=O)N[C@@H](Cc1c[nH]c2ccccc12)C(=O)N[C@@H](CC(C)C)C(=O)N[C@H](C(=O)N[C@@H](CCCCN)C(=O)NCC(N)=O)C(C)C) [Analog 057]	4.23	0.57	36.8	
Y[Aib]EGTFTSDYSIYMEKEAVREFIAWLVKGKKKKK-NH2 (N-terminus assumed; SMILES CC[C@H](C)[C@H](NC(=O)[C@H](Cc1ccccc1)NC(=O)[C@H](CCC(=O)O)NC(=O)[C@H](CCCNC(=N)N)NC(=O)[C@@H](NC(=O)[C@H](C)NC(=O)[C@H](CCC(=O)O)NC(=O)[C@H](CCCCN)NC(=O)[C@H](CCC(=O)O)NC(=O)[C@H](CCSC)NC(=O)[C@H](Cc1ccc(O)cc1)NC(=O)[C@@H](NC(=O)[C@H](CO)NC(=O)[C@H](Cc1ccc(O)cc1)NC(=O)[C@H](CC(=O)O)NC(=O)[C@H](CO)NC(=O)[C@@H](NC(=O)[C@H](Cc1ccccc1)NC(=O)[C@@H](NC(=O)CNC(=O)[C@H](CCC(=O)O)NC(=O)C(C)(C)NC(=O)[C@@H](N)Cc1ccc(O)cc1)[C@@H](C)O)[C@@H](C)O)[C@@H](C)CC)C(C)C)C(=O)N[C@@H](C)C(=O)N[C@@H](Cc1c[nH]c2ccccc12)C(=O)N[C@@H](CC(C)C)C(=O)N[C@H](C(=O)N[C@@H](CCCCN)C(=O)NCC(=O)N[C@@H](CCCCN)C(=O)N[C@@H](CCCCN)C(=O)N[C@@H](CCCCN)C(=O)N[C@@H](CCCCN)C(=O)N[C@@H](CCCCN)C(N)=O)C(C)C) [Analog 060]	2.97	2.5	8.4	36.8
